Laboratory results published in patent publication US20240254227A1 (Alector, published 2024).

Columns and labels:
[1] = target: T1, huCD300F constitutively expressed on 293 Freestyle (Freestyle HEK) cells (human, UniProt Q8TDQ1 20-290); experiment: flow cytometry, stable Freestyle HEK cells
T1 construct: also called huCD300LF; Human CD300F
T1 sequence: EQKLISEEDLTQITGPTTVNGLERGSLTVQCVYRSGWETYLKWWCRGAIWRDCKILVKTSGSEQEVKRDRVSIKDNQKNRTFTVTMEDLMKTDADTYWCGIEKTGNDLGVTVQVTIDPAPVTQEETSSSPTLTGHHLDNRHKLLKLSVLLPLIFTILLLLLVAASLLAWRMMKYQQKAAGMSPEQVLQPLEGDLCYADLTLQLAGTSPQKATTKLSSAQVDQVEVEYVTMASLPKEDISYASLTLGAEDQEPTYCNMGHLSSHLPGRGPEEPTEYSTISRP
Procedure: (§1) Other members of the human CD300 family share sequence homology with human CD300LB. Thus, counter screens against binding of the anti-CD300LB antibodies to huCD300A, huCD300C, huCD300LD, huCD300E, huCD300LF, and huCD300G by stable overexpression in Freestyle HEK cells (generation of which is described above) were performed as follows. Cells were counted and labeled with 200 nM CFSE, 500 nM VioBlue, or a combination of the two to discriminate between CD300LB, Parental cells, and the other CD300 family members. Cells were washed thoroughly with PBS containing 2% fetal bovine serum then resuspended at a total of 240,000 cells per well. Hybridoma supernatants (100 L) or purified antibodies at various concentrations were added and incubated for one hour before the cells were washed twice again and stained with an APC-labeled anti-human or anti-mouse secondary antibody. Cells were then analyzed using a BD FACSCanto II. Anti-CD300LB antibodies were analyzed for specific binding to human CD300LB by FlowJo software by gating on live cells, then the APC geometric mean fluorescence intensity (gMFI) calculated for each labeled population. The results are shown in […]
(§2) Freestyle HEK cells were transfected with huCD300A, huCD300C, huCD300D, huCD300E, and huCD300G separately. Then, five stable cell lines from these transfections were pooled; the combined cells are herein known as CD300A/C/D/E/G. Freestyle HEK cells were also transfected with huCD300LB and huCD300F. All transfected cells were then tested for binding of anti-CD300LB antibodies of the present disclosure.

[2] = target: T2, huCD300LB-DAP12 fusion constitutively expressed on 293 Freestyle (Freestyle HEK) cells (human); experiment: flow cytometry, stable Freestyle HEK cells
T2 construct: also called Human CD300LB-DAP12 chimera
Procedure: as §1, §2

[3] = target: T3, murine CD300LB stably expressed on Jurkat cells (mouse, UniProt Q3U497 18-209); experiment: flow cytometry, stable Jurkat cells, supernatant or 10 ug/mL, isotype subtracted
T3 construct: also called muCD300LB; mouse CD300LB
T3 sequence: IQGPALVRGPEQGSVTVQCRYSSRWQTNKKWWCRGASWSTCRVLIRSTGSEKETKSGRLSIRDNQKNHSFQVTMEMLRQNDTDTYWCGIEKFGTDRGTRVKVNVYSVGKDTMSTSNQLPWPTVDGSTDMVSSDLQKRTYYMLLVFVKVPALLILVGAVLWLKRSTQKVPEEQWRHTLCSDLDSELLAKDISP
Procedure: Purified anti-CD300LB antibodies of the present disclosure were also evaluated for species cross-reactivity to mouse and human CD300LB stably expressed in Jurkat cells (generation of which is described above). Cells were counted and labeled with 200 nM CFSE, 500 nM VioBlue, or a combination of the two to discriminate between human CD300LB, Parental cells and mouse CD300LB. Cells were washed thoroughly with PBS containing 2% fetal bovine serum then resuspended at a total of 240,000 cells per well. Hybridoma supernatants (100 L) or purified antibodies at 10 μg/mL were added and incubated for one hour before the cells were washed again and stained with an APC-labeled anti-human or anti-mouse secondary. Cells were then analyzed using a BD FACSCanto II. Antibodies were analyzed for binding to mouse or human CD300LB by FlowJo software by gating on live cells, then the APC gMFI calculated for each labeled population by subtraction of the gMFI of the appropriate isotype control.

[4] = target: T4, human CD300LB transiently expressed on HEK293 cells (human, UniProt A8K4G0 18-201); experiment: flow cytometry, transfected HEK293, 10 ug/mL, isotype subtracted
T4 construct: CD300LB expression constructs'; also called huCD300LB HEK293
T4 sequence: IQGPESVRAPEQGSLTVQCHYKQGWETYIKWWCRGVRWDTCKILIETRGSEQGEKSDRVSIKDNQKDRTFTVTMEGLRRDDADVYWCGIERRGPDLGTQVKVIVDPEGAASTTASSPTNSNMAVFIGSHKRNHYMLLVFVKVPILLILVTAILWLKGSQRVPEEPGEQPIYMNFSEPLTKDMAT
Procedure: In addition, supernatants or purified antibodies were tested for species crossreactivity by comparing the binding of human, mouse, and cynomolgous monkey CD300LB expressing cell lines. HEK293 were transfected with […] of human, mouse, and cyno CD300LB expression constructs using the Mirus system in 10 cm tissue culture dishes. Cells were then incubated for 24 hours in complete medium. Cells were harvested by incubation in TrypLE Express, then washed with PBS and labeled with 200 nM CFSE, 500 nM VioBlue, or a combination of the two to discriminate between human, mouse, and cyno CD300LB expressing cells. Cells were washed thoroughly with PBS containing 2% fetal bovine serum then resuspended at a total of 240,000 cells per well. Purified antibodies at 10 μg/mL were added and incubated for one hour before the cells were washed again and stained with an APC-labeled anti-human or anti-mouse secondary. Cells were then analyzed using a BD FACSCanto II. Antibodies were analyzed for specific binding to human, mouse, or cyno CD300LB by FlowJo software by gating on live cells, then the APC gMFI calculated for each labeled population minus the gMFI of the isotype control.

T2 sequence (chain, as listed by the source limits assumed): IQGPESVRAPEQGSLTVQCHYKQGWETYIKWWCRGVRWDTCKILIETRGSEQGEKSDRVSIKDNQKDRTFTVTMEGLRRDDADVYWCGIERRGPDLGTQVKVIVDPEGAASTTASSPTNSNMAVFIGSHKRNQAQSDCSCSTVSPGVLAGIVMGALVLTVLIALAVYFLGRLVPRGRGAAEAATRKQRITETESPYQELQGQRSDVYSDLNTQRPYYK

B1: anti-CD300LB antibody CD-06 (antibody, V domains shown)
VH: QVQLVQSGAEVKKPGASVKVSCKASGYTFTTYAVHWVRQAPGQGLEWMGIVNPNSGGTNYAQKFQGRVTMTRDTSTSTVYMELSSLRSEDTAVYYCARDIVPMNNFYNYYYGMDVWGQGTTVTVSS
VL: DIQMTQSPSSLSASVGDRVTITCRASQSISSYLNWYQQKPGKAPKLLIYATSTLQSGVPSRFSGSGSGTDFTLTISSLQPEDFATYYCQQSYRIPYTFGQGTKVEIK
With B1 the binding result [1] was “no binding”, the gMFI [1] was 886 gMFI and the gMFI [2] was 80900 gMFI. It also gave a gMFI [3] of -48.7 gMFI and a gMFI [4] of 314 gMFI.
